US20240131068A1 (KITE PHARMA, published 2024)

T1: native CD19 expressed on NALM6 tumor cells (UniProt P15391 20-556)
T1 construct: whole, on cells; also called CD19^+ NALM6; NALM6-wt
T1 sequence (looked up): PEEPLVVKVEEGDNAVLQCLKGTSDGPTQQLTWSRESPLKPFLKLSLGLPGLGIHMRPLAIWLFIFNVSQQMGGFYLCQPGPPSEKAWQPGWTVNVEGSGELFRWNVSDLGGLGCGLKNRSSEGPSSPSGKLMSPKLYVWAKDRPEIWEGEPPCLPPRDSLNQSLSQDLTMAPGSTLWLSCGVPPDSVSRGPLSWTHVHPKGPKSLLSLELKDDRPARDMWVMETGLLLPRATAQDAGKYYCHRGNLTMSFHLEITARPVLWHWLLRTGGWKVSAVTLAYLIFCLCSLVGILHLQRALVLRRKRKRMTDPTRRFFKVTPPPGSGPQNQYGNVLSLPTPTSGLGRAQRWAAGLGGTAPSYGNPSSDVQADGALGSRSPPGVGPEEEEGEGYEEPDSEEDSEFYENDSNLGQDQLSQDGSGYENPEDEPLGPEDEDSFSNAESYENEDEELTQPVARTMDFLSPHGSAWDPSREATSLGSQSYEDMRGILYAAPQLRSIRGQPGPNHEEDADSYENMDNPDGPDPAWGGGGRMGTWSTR

B1: CD19 E7 scFv (P4) (scFv)
scFv: DIQMTQSPSSLSASVGDRVTITCRASQDITRYLNWYQQKPGKAPKLLIYAASSLQSGVPSRFSGSGSGTDFTLTISSLQPEDFATYYCQQSYSYPPTFGQGTKVEIKGGGGSGGGGSGGGGSQVQLVESGGGVVQPGRSLRLSCAASGFTFRDYGMHWVRQAPGKGLEWVAVISYEGSNEYYADSVKGRFTISRDNSKNTLYLQMNSLRAEDTAVYYCARDRGFAGWYDYAFDPWGQGTLVTVSS
notes: scFv clone from the display library, screened as a library clone; also called 45; clone 45
B2: CD19 23 scFv (P12) (scFv)
scFv: DIQMTQSPSSLSASVGDRVTITCRASQSIYSYLNWYQQKRGKAPKLLIYDASSLQSGVPSRFSGSGSGTDFTLTISSLQPEDFATYYCQQSYTAPPTFGQGTKVEIKGGGGSGGGGSGGGGSEVQLLESGGGLVQPGGSLRLSCAASGFTFSNYAMSWVRQAPGKGLEWVSAISESGHGTYYADSVKGRFTISRDNSKNTLYLQMNSLRAEDTAVYYCARLDWAGFDVWGQGTLVTVSS
notes: scFv clone from the display library, screened as a library clone; also called 53; clone 53
B3: CD19 15 scFv (P9) (scFv)
scFv: DIQMTQSPSSLSASVGDRVTITCRASQPIRPYLNWYQQKPGKAPKLLIYDASSLQSGVPSRFSGSGSGTDFTLTISSLQPEDFATYYCQQSYSAPYTFGQGTKVEIKGGGGSGGGGSGGGGSEVQLLESGGGLVQPGGSLRLSCAASGFTFSSYAMSWVRQAPGKGLEWVSVISGGGANTYYADSVKGRFTISRDNSKNTLYLQMNSLRAEDTAVYYCARDWRYFDHWGQGTLVTVSS
notes: scFv clone from the display library, screened as a library clone; also called 50; clone 50
B4: CD19 16 scFv (P10) (scFv)
scFv: QSVLTQPPSVSGAPGQRVTISCTGSSSNIGAGYDVHWYQQLPGTAPKLLIYGNNNRPSGVPDRFSGSKSGTSASLAITGLQAEDEADYYCQSYDVSLGVWVFGGGTKLTVLGGGGSGGGGSGGGGSQLQLQESGPGLVKPSETLSLTCTVSGGSISSPSYYWGWIRQPPGKGLEWIGSIYYTGATYYNPSLKSRVTISVDTSKNQFSLKLSSVTAADTAVYYCARYGPAGVGFDYWGQGTLVTVSS
notes: scFv clone from the display library, screened as a library clone; also called 51; clone 51
B5: CD19 11 scFv (P7) (scFv)
scFv: DIQMTQSPSSLSASVGDRVTITCRASQSISSYLNWYQQKPGKAPKLLIYAASSLQSGVPSRFSGSGSGTDFTLTISSLQPEDFATYYCQQTGAVPYTFGQGTKVEIKGGGGSGGGGSGGGGSEVQLLESGGGLVQPGGSLRLSCAASGFTFRDYAMSWVRQAPGKGLEWVSAISESGIDTYYADSVKGRFTISRDNSKNTLYLQMNSLRAEDTAVYYCARVAGYDSDSSTYYDYMDVWGQGTLVTVSS
notes: scFv clone from the display library, screened as a library clone; also called 48; clone 48
B6: CD19 14 scFv (P8) (scFv)
scFv: DIQMTQSPSSLSASVGDRVTITCRASQSISNYLNWYQQKPGKAPKLLIYAASSLQSGVPSRFSGSGSGTDFTLTISSLQPEDFATYYCQQAYSAPITFGQGTKVEIKGGGGSGGGGSGGGGSEVQLLESGGGLVQPGGSLRLSCAASGFTFGDYAMSWVRQAPGKGLEWVSAISRGGHGTYYADSVKGRFTISRDNSKNTLYLQMNSLRAEDTAVYYCARLVGYGLDYWGQGTLVTVSS
notes: scFv clone from the display library, screened as a library clone; also called 49; clone 49
B7: CD19 18 scFv (P11) (scFv)
scFv: QSVLTQPPSVSGAPGQRVTISCTGSSSNIGAGYDVHWYQQLPGTAPKLLIYGTKNRPSGVPDRFSGSKSGTSASLAITGLQAEDEADYYCQSYDVRLKGWVFGGGTKLTVLGGGGSGGGGSGGGGSQLQLQESGPGLVKPSETLSLTCTVSGGSITSSSYYWGWIRQPPGKGLEWIGSIYYTGTTYYNPSLKSRVTISVDTSKNQFSLKLSSVTAADTAVYYCARYVGLSGGFDYWGQGTLVTVSS
notes: scFv clone from the display library, screened as a library clone; also called 52; clone 52
B8: CD19 10 scFv (P6) (scFv)
scFv: DIQMTQSPSSLSASVGDRVTITCRASQTISRYLNWYQQKPGKAPKLLIYAASSLQSGVPSRFSGSGSGTDFTLTISSLQPEDFATYYCQQSYRPPLTFGQGTKVEIKGGGGSGGGGSGGGGSEVQLLESGGGLVQPGGSLRLSCAASGFTFSSYAMSWVRQAPGKGLEWVSTISAGGHGTYYADSVKGRFTISRDNSKNTLYLQMNSLRAEDTAVYYCARGAGYFDYWGQGTLVTVSS
notes: scFv clone from the display library, screened as a library clone; also called 47; clone 47
B9: CD19 7 scFv (P5) (scFv)
scFv: DIQMTQSPSSLSASVGDRVTITCRASQSISKYLNWYQQKPGKAPKLLIYDASSLQSGVPSRFSGSGSGTDFTLTISSLQPEDFATYYCQQSYTIPLTFGQGTKVEIKGGGGSGGGGSGGGGSQVQLVQSGAEVKKPGSSVKVSCKASGGTFSSYAFSWVRQAPGQGLEWMGGIVPLFGAVEYAQKFQGRVTITADESTSTAYMELSSLRSEDTAVYYCAREKGFYRYFDHWGQGTLVTVSS
notes: scFv clone from the display library, screened as a library clone; also called 46; clone 46

Biological target: SIGLEC 8 (UniProt Q9NYZ4 17-499, limits assumed)
Sequence (Q9NYZ4 17-499 limits assumed): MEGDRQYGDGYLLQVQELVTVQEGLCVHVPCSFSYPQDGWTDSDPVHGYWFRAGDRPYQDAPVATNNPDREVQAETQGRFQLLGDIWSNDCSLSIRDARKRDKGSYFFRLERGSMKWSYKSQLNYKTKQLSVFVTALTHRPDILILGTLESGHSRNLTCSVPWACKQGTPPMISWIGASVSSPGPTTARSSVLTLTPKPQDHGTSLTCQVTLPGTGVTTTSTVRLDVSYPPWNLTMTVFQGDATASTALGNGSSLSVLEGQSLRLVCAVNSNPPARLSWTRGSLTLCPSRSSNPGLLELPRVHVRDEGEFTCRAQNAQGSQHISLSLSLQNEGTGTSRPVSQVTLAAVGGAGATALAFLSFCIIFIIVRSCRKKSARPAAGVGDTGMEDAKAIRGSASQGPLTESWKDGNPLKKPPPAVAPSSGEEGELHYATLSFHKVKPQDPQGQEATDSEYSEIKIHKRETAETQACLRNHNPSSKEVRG
Test: counter-selection of scFv clones against baculovirus and SIGLEC 7, 8 and 9
Source text: (§1) These up to 30 scFv clones were further screened based on their ability to bind baculovirus or SIGLEC. Clones that bound biotinylated baculovirus or SIGLEC 7, 8 and 9 were removed from consideration.

Row | binding result | Binder
1 | no binding | B1

Biological target: SIGLEC 7 (UniProt Q9Y286 19-467, limits assumed)
Sequence (Q9Y286 19-467 limits assumed): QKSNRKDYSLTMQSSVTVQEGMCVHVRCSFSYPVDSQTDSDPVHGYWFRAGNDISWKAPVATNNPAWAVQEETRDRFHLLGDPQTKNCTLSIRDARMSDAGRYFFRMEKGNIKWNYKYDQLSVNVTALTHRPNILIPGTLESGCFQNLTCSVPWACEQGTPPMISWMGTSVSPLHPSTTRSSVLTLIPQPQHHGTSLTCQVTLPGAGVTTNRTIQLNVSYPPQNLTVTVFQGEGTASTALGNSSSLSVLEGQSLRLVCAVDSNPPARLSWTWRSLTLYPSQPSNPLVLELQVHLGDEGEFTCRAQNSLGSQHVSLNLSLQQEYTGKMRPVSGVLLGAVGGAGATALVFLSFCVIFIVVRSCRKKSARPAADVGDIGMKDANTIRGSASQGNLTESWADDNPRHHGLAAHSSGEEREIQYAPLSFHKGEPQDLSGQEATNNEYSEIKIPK
Test: as above
Source text: as §1

Row | binding result | Binder
2 | no binding | B1

Biological target: SIGLEC 9 (UniProt Q9Y336 18-463, limits assumed)
Sequence (Q9Y336 18-463 limits assumed): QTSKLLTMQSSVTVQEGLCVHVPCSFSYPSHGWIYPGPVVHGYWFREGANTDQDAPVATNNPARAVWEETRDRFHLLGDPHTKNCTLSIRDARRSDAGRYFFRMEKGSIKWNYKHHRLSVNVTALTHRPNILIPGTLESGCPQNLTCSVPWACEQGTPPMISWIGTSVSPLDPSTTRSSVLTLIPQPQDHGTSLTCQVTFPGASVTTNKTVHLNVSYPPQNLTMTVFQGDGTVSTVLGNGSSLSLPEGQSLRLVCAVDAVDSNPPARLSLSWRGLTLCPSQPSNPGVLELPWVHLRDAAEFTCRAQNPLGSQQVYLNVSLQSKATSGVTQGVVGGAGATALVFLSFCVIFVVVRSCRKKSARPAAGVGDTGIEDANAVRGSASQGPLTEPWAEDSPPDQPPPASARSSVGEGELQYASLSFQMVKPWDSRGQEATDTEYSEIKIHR
Test: as above
Source text: as §1

Row | binding result | Binder
3 | no binding | B1

Biological target: T1, native CD19 expressed on NALM6 tumor …
Test: screen of scFv clones on CD19^+ NALM6 cells, Nalm6-CD19KO cells as negative control
Source text: To ensure that the up to (30) clones could recognize native CD19 expressed on tumor cells, the clones (scFv) were also screened against NALM6 tumor cell line positive (+) CD19 expression (NALM6 cell line+CD19). CD19 knockout Nalm6 cell line (NALM6 cell line⁻ CD1; or CD19KO Nalm6 cell line) were used as a negative control for the selection. CD19KO Nalm6 cell lines used for the screen were engineered CRISPR knocked-out (KO) Nalm6-CD19KO cells. Clones that bound CD19⁺ NALM6 tumor cells, but not CD19-NALM6 tumor cells (CD19K0) were selected (Step 4).

Row | binding result | Binder
4 | binds | B2
5 | binds | B3
6 | binds | B4
7 | binds | B5
8 | binds | B6
9 | binds | B1
10 | binds | B7
11 | binds | B8
12 | binds | B9
